The values below come from patent publication EP2091973A2.

Common to all, as to test: cell-based or functional assay
The target in assay [1] is gp120 of HIV strain SF162 (clade B) on virus (HIV-1 (strain SF162)).
The target in assay [2] is gp120 of HIV strain BR004 (clade C) on virus (HIV-1 (strain BR004)).
The target in assay [3] is gp120 of HIV strain ZA009 (clade C) on virus (HIV-1 (strain 97ZA009)).

MAb b12 (antibody): the IC80, HIV neutralization (PBMC hosts, p24) in assay [1] was 14.1 µg/mL; in assay [2], greater than 20 µg/mL; in assay [3] it was greater than 20 µg/mL.
